# From article PMC5297931
# Target: Haemophilus surface fibril (Hsf) putative domain 1 (PD1) (H. influenzae)
# Experiment: SEC-MALLS; Superdex 200 5/150, buffer C (50 mM Tris, 150 mM NaCl pH 8.0), 0.2 ml/min; LS, dRI and UV detectors; IMAC- and SEC-purified HsfPD1
substance,measurement,value
Haemophilus surface fibril (Hsf) putative domain 1 (PD1) (domain or fragment),stoichiometry N,3
